Data published in the supplement of paper PMC7125110.
± gives the standard error. For part of these data: Fewer inactive variants are shown than the library holds.

B1: glmS ribozyme (parent)
chain: AUAAAAGCGCCAGAACUACAGAAAUGUAGUUGACGAGGAGGAGGUUUAUCGAAUUUUCGGCGGAUGCCUCCAAA

Legend:
Settings in all cases: with glucosamine-6-phosphate
glucosamine-6-phosphate [1] = variants of: B1; assay: kcat; higher = faster cleavage; RNA array
Procedure, shortened: (§1)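 Barcoded ribozyme variants on sequenced MiSeq chips were transcribed in situ by E. coli RNA polymerase and followed at 37 °C through a hybridised Cy3 probe. Glucosamine-6-phosphate at 40 μM to 10 mM in HEPES/KCl/Mg(OAc)2 buffer was flowed in, and tiles were imaged over ~14 h. Signals were normalised to baseline and to non-cleaving reference variants, and per-tile medians were fit to one- or two-exponential decays to give kobs. Weighted Michaelis–Menten fits across concentrations gave kcat and KM.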

glucosamine-6-phosphate [2] = variants of: B1; assay: KM; higher = weaker cofactor use; RNA array
Procedure, shortened: as §1

glucosamine-6-phosphate [3] = variants of: B1; assay: self-cleavage kobs at 160 uM GlcN6P; higher = faster cleavage; RNA array
Procedure, shortened: as §1

glucosamine-6-phosphate [4] = variants of: B1; assay: self-cleavage kobs at 640 uM GlcN6P; higher = faster cleavage; RNA array
Procedure, shortened: as §1

glucosamine-6-phosphate [5] = variants of: B1; assay: self-cleavage kobs at 2500 uM GlcN6P; higher = faster cleavage; RNA array
Procedure, shortened: as §1

glucosamine-6-phosphate [6] = variants of: B1; assay: self-cleavage kobs at 10000 uM GlcN6P; higher = faster cleavage; RNA array
Procedure, shortened: as §1

glucosamine-6-phosphate [7] = variants of: B1; assay: self-cleavage kobs at 40 uM GlcN6P; higher = faster cleavage; RNA array
Procedure, shortened: as §1

Variant | kcat (glucosamine-6-phosphate [1]) [s⁻¹] | KM (glucosamine-6-phosphate [2]) [µM] | self-cleavage kobs at 160 uM GlcN6P (glucosamine-6-phosphate [3]) [s⁻¹] | self-cleavage kobs at 640 uM GlcN6P (glucosamine-6-phosphate [4]) [s⁻¹] | self-cleavage kobs at 2500 uM GlcN6P (glucosamine-6-phosphate [5]) [s⁻¹] | self-cleavage kobs at 10000 uM GlcN6P (glucosamine-6-phosphate [6]) [s⁻¹] | self-cleavage kobs at 40 uM GlcN6P (glucosamine-6-phosphate [7]) [s⁻¹]
G40C A53C | 0.000789 ± 2e-05 | 2240 ± 110 | 5.46e-05 ± 1.9e-05 | 0.000176 ± 2.5e-05 | 0.0004 ± 6.6e-05 | 0.000652 ± 7.2e-05 | –
G29A C67G | 0.00016 ± 1.6e-05 | 1710 ± 390 | – | 4.67e-05 ± 1e-05 | 8.59e-05 ± 1.7e-05 | 0.000145 ± 2.5e-05 | –
A14C C50U | 1.4e-05 ± 6.4e-06 | – | – | – | – | – | –
A48U U54C | 0.000526 ± 0.00015 | – | – | 5.32e-05 ± 1.7e-05 | 0.000255 ± 5.1e-05 | 0.000349 ± 6.3e-05 | –
U30G G40U | 0.000787 ± 9.4e-05 | 1610 ± 350 | 6.94e-05 ± 1.5e-05 | 0.000212 ± 2.9e-05 | 0.000615 ± 0.00014 | 0.000668 ± 7.3e-05 | 3.53e-05 ± 1.3e-05
A48C U54G | 0.000498 ± 0.00012 | 2740 ± 1200 | – | 0.000114 ± 1.4e-05 | 0.000222 ± 2.4e-05 | 0.000402 ± 5e-05 | –
U55G G60A | 2.4e-05 ± 6.2e-07 | 1810 ± 130 | – | – | – | – | –
C34G C70G | 1.99e-05 ± 6.6e-07 | 234 ± 89 | – | – | – | – | –
G40C G66A | 0.00247 ± 0.00097 | – | 0.000162 ± 4.5e-05 | 0.00111 ± 0.0003 | 0.00108 ± 0.00021 | 0.00269 ± 0.0004 | 9.75e-05 ± 2.1e-05
U47G C71G | 0.00028 ± 1.5e-05 | 685 ± 85 | 5.19e-05 ± 7.8e-06 | 0.000146 ± 1.7e-05 | 0.000205 ± 2.8e-05 | 0.000265 ± 2.4e-05 | –
C50G C70G | 0.000103 ± 1.8e-05 | – | 0.000142 ± 9.9e-06 | 0.000112 ± 1.2e-05 | 9.3e-05 ± 1e-05 | 8.05e-05 ± 8.7e-06 | 7.4e-05 ± 7.4e-06
A39G U45A | 0.0357 ± 0.011 | 581 ± 220 | 0.00768 ± 0.0018 | 0.0157 ± 0.0034 | 0.061 ± 0.03 | 0.0497 ± 0.018 | 0.00238 ± 0.00029
A33G U57G | 1.21e-05 ± 4.2e-06 | – | – | – | – | < 1e-05 | –
U30C U56A | 0.000339 ± 6.9e-06 | 2910 ± 110 | – | 6.11e-05 ± 6.9e-06 | 0.000155 ± 1.6e-05 | 0.000263 ± 2.4e-05 | –
U56C | 0.00571 ± 0.00066 | 3050 ± 430 | 0.000244 ± 8.9e-06 | 0.000963 ± 2.5e-05 | 0.00743 ± 0.0032 | 0.00442 ± 0.00011 | 7.94e-05 ± 1.5e-06
U56G | 0.04 ± 0.003 | 3170 ± 310 | 0.00186 ± 0.00015 | 0.00628 ± 0.00028 | 0.0168 ± 0.00087 | 0.0313 ± 0.0012 | 0.000527 ± 1.8e-05
A12G A39U | 0.000523 ± 9.7e-05 | 4350 ± 1400 | – | 6.01e-05 ± 1.2e-05 | 0.000246 ± 4.1e-05 | 0.00035 ± 4.6e-05 | –
C11U U47C | 8.97e-05 ± 5.3e-06 | 1150 ± 290 | – | 4.05e-05 ± 1.7e-05 | 5.91e-05 ± 8.5e-06 | 8.15e-05 ± 8.5e-06 | –
A15C U55C | 0.00633 ± 0.0012 | 2200 ± 580 | 0.000383 ± 7.4e-05 | 0.00121 ± 0.00034 | 0.00302 ± 0.00052 | 0.00573 ± 0.00087 | 0.000138 ± 2e-05
G7A U31G | 2.76e-05 ± 2.9e-06 | 2490 ± 920 | – | – | – | – | –
A14U G59A | 6.06e-05 ± 3.3e-06 | 9990 ± 1000 | < 1e-05 | – | – | 3.03e-05 ± 1.1e-05 | < 1e-05
A15U U65A | 0.000377 ± 6.3e-05 | 1080 ± 410 | 6.26e-05 ± 2.2e-05 | 0.000146 ± 2.3e-05 | 0.00021 ± 4.1e-05 | 0.00039 ± 5.6e-05 | –
G40U G66C | 0.000542 ± 7.3e-05 | 2060 ± 890 | – | – | – | 0.00046 ± 6.4e-05 | –
A12U U31A | 0.0283 ± 0.0065 | 2890 ± 880 | 0.00177 ± 0.00045 | 0.00457 ± 0.0011 | 0.0106 ± 0.0026 | 0.0257 ± 0.0049 | 0.000416 ± 7.3e-05
U55A G66A | 0.0303 ± 0.014 | – | 0.00137 ± 0.0003 | 0.00563 ± 0.00082 | 0.015 ± 0.0035 | 0.0286 ± 0.0061 | 0.000654 ± 7.1e-05
A15G G29U | 0.00177 ± 0.00076 | – | 0.000104 ± 4.4e-05 | 0.000265 ± 0.0001 | 0.00118 ± 0.00039 | 0.00145 ± 0.00039 | 6.06e-05 ± 1.7e-05
A14U A36G G66U | < 1e-05 | – | – | < 1e-05 | – | < 1e-05 | –
C11G A15G | 1.01e-05 ± 1.4e-06 | – | – | < 1e-05 | – | – | –
G7A U47G C61U | 1.24e-05 ± 4e-06 | – | – | – | – | – | –
G13U A15G G32A C70G | 9.35e-05 ± 2.2e-06 | 405 ± 40 | – | 5.48e-05 ± 1.7e-05 | 8.14e-05 ± 1.6e-05 | 8.98e-05 ± 1.9e-05 | –
